Source: the supplement of paper PMC10567573

B1: RSPH3 (parent)
chain: MTVKPAKAASLARNLAKRRRTYLG

Variants of: B1
Assay: protein stability index of a GFP-peptide fusion (GPS, HEK-293T) (PSI 1-6); higher = more stable
Conditions: c terminus: a fixed tail appended
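Also: lentivirally expressed fusions sorted by FACS into six bins by GFP to DsRed ratio, PSI derived from sequencing read proportions per bin multiplied by bin number.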

Variant | protein stability index
MTVKPAKAASLARNLAMRRRTYLG | 2.8
MTVKPAKAASLARNLARRRRTYLG | 3.04
MTVKPAKAASLARNLAVRRRTYLG | 2.64
MTVKPAKAASLARNLANRRRTYLG | 2.57
MTVKPAKAASLARNLAIRRRTYLG | 2.46
MTVKPAKAASLARNLAQRRRTYLG | 2.49
MTVKPAKAASLARNLACRRRTYLG | 1.99
MTVKPAKAASLARNLAWRRRTYLG | 1.92
MTVKPAKAASLARNLALRRRTYLG | 2.61
MTVKPAKAASLARNLASRRRTYLG | 2.91
MTVKPAKAASLARNLATRRRTYLG | 3
MTVKPAKAASLARNLAYRRRTYLG | 2.38
MTVKPAKAASLARNLAERRRTYLG | 2.99
MTVKPAKAASLARNLAPRRRTYLG | 3.02
MTVKPAKAASLARNLAFRRRTYLG | 2.1
MTVKPAKAASLARNLAHRRRTYLG | 2.99
MTVKPAKAASLARNLAGRRRTYLG | 3.5
MTVKPAKAASLARNLAARRRTYLG | 3.39
MTVKPAKAASLARNLADRRRTYLG | 3.25
MTVKPAKAASLARNSAKRRRTYLG | 3.75
MTVKPAKAASLARNKAKRRRTYLG | 3.48
MTVKPAKAASLARNIAKRRRTYLG | 3.14
MTVKPAKAASLARNTAKRRRTYLG | 3.35
MTVKPAKAASLARNFAKRRRTYLG | 2.08

Variant | protein stability index
MTVKPAKAASLARNMAKRRRTYLG | 2.58
MTVKPAKAASLARNVAKRRRTYLG | 4.02
MTVKPAKAASLARNAAKRRRTYLG | 4.08
MTVKPAKAASLARNGAKRRRTYLG | 4.08
MTVKPAKAASLARNYAKRRRTYLG | 2.84
MTVKPAKAASLARNCAKRRRTYLG | 3.14
MTVKPAKAASLARNEAKRRRTYLG | 4.42
MTVKPAKAASLARNRAKRRRTYLG | 3.92
MTVKPAKAASLARNQAKRRRTYLG | 3.34
MTVKPAKAASLARNDAKRRRTYLG | 4.11
MTVKPAKAASLARNPAKRRRTYLG | 3.75
MTVKPAKAASLARNHAKRRRTYLG | 3.32
MTVKPAKAASLARNNAKRRRTYLG | 3.56
MTVKPAKAASLARNLAKRRRTYFG | 3.2
MTVKPAKAASLARNLAKRRRTYEG | 4.43
MTVKPAKAASLARNLAKRRRTYDG | 3.71
MTVKPAKAASLARNLAKRRRTYCG | 3.28
MTVKPAKAASLARNLAKRRRTYAG | 3.98
MTVKPAKAASLARNLAKRRRTYGG | 4.13
MTVKPAKAASLARNLAKRRRTYHG | 3.9
MTVKPAKAASLARNLAKRGRTYLG | 2.85
MTVKPAKAASLARNLAKRMRTYLG | 3.63
MTVKPAKAASLARNLAKRCRTYLG | 1.6
MTVKPAKAASLARNLAKRWRTYLG | 1.64

Variant | protein stability index
MTVKPAKAASLARNLAKRTRTYLG | 2.52
MTVKPAKAASLARNLAKRQRTYLG | 2.62
MTVKPAKAASLARNLAKRHRTYLG | 1.51
MTVKPAKAASLARNLAKRERTYLG | 3.49
MTVKPAKAASLARNLAKRLRTYLG | 2.05
MTVKPAKAASLARNLAKRYRTYLG | 2.42
MTVKPAKAASLARNLAKRIRTYLG | 1.77
MTVKPAKAASLARNLAKRVRTYLG | 1.45
MTVKPAKAASLARNLAKRFRTYLG | 1.23
MTVKPAKAASLARNLAKRPRTYLG | 1.86
MTVKPAKAASLARNLAKRARTYLG | 1.79
MTVKPAKAASLARNLAKRDRTYLG | 2.88
MTVKPAKAASLARNLAKRKRTYLG | 2.86
MTVKPAKAASLARNLAKRNRTYLG | 2.37
MTVKPAKAASLARNLAKRSRTYLG | 2.51
MTVKPAKAASLARNLAKRRRPYLG | 2.92
MTVKPAKAASLARNLAKRRRCYLG | 2.73
MTVKPAKAASLARNLAKRRRNYLG | 2.98
MTVKPAKAASLARNLAKRRRIYLG | 2.54
MTVKPAKAASLARNLAKRRRAYLG | 3.09
MTVKPAKAASLARNLAKRRRVYLG | 2.83
MTVKPAKAASLARNLAKRRRMYLG | 2.7
MTVKPAKAASLARNLAKRRRDYLG | 3.59
MTVKPAKAASLARNLAKRRRHYLG | 2.79

Variant | protein stability index
MTVKPAKAASLARNLAKRRRYYLG | 2.13
MTVKPAKAASLARNLAKRRRRYLG | 3.18
MTVKPAKAASLARNLAKRRREYLG | 3.47
MTVKPAKAASLARNLAKRRRQYLG | 3.21
MTVKPAKAASLARNLAKRRRGYLG | 2.83
MTVKPAKAASLARNLAKRRRSYLG | 3.26
MTVKPAKAASLARNLAKRRRKYLG | 3.9
MTVKPAKAASLARNLAKRRRLYLG | 2.98
MTVKPAKAASLARNLAKRRRFYLG | 1.93
MTVKPAKAASLARNLAKRRRWYLG | 1.77
MTVKPAKAASLARNLMKRRRTYLG | 2.57
MTVKPAKAASLARNLLKRRRTYLG | 2.35
MTVKPAKAASLARNLYKRRRTYLG | 2.53
MTVKPAKAASLARNLVKRRRTYLG | 3.28
MTVKPAKAASLARNLEKRRRTYLG | 2.15
MTVKPAKAASLARNLDKRRRTYLG | 3.04
MTVKPAKAASLARNLPKRRRTYLG | 3.42
MTVKPAKAASLARNLTKRRRTYLG | 2.69
MTVKPAKAASLARNLSKRRRTYLG | 3.36
MTVKPAKAASLARNLIKRRRTYLG | 2.28
MTVKPAKAASLARNLFKRRRTYLG | 2.48
MTVKPAKAASLARNLGKRRRTYLG | 3.15
